According to patent US6355481:

Target: HAP1-A (Huntingtin Associated Protein 1-A) (UniProt P54256)
Experiment: cell-based or functional assay

Sequence of HAP1-A (Huntingtin Associated Protein 1-A) (P54256 other isoform, or with tags, fused parts or gaps limits assumed): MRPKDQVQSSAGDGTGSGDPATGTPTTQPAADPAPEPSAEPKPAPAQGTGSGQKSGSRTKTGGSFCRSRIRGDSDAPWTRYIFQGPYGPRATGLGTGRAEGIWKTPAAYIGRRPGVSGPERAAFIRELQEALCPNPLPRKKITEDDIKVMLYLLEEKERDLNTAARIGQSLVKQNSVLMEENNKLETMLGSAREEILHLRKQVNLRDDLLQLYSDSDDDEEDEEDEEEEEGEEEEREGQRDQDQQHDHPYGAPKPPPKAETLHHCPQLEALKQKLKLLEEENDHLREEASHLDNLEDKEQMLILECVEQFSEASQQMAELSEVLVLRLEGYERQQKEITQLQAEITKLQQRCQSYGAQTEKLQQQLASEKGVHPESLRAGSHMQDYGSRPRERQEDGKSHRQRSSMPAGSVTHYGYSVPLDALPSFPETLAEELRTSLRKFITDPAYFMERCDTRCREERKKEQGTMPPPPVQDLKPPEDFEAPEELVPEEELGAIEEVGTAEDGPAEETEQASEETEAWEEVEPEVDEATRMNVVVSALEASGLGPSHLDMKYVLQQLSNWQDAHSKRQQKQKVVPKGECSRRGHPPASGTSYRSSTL

N-terminal region of human huntingtin protein (amino acids 1-253) with 120 glutamines (HD-120Q) (from UniProt P42858 1-253)
percentage of HAP1-A and huntingtin double-transfected PC12 cells with elongated neurites: 7.5%

N-terminal region of human huntingtin protein (amino acids 1-253) with 73 glutamines (HD-73Q) (from UniProt P42858 1-253)
percentage of HAP1-A and huntingtin double-transfected PC12 cells with elongated neurites: 15.2%
